From paper doi:10.1101/2023.10.09.561484

What was measured:
[1] = target: EGFP-Pro(K10R/Y12A) (Streptomyces mobaraensis); assay: BLI
[2] = target: EGFP-Pro(K10R) (Streptomyces mobaraensis); assay: BLI

B1: ΔproMTG lacking the C-terminal His-tag (recombinant mature microbial transglutaminase) (enzyme)
chain: DSDDRVTPPAEPLDRMPDPYRPSYGRAETVVNNYIRKWQQVYSHRDGRKQQMTEEQREWLSYGCVGVTWVNSGQYPTNRLAFASFDEDRFKNELKNGRPRSGETRAEFEGRVAKESFDEEKGFQRAREVASVMNRALENAHDESAYLDNLKKELANGNDALRNEDARSPFYSALRNTPSFKERNGGNHDPSRMKAVIYSKHFWSGQDRSSSADKRKYGDPDAFRPAPGTGLVDMSRDRNIPRSPTSPGEGFVNFDYGWFGAQTEADADKTVWTHGNHYHAPNGSLGAMHVYESKFRNWSEGYSDFDRGAYVITFIPKSWNTAPDKVKQGWP
Kd [1]: 7.85 µM
Kd [2]: 0.019 µM
